Measured values reported in the supplement of paper PMC10567573.
± gives the standard deviation.

Assay: protein stability index of a GFP-peptide fusion (GPS, HEK-293T) (PSI 1-6); higher = more stable
[1] = treatment: DMSO, c terminus: a fixed tail appended
[2] = treatment: MLN4924 1 uM, 8 h, c terminus: a fixed tail appended
[3] = treatment: DMSO, c terminus: native
[4] = treatment: MLN4924 1 uM, 8 h, c terminus: native
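Also: 24-mer peptide tiles fused after GFP, lentivirally expressed, FACS-sorted into six equal bins by GFP/DsRed ratio, decoded by Illumina sequencing, PSI is the read-weighted mean bin number.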

Sequence	protein stability index [1]	protein stability index [2]	protein stability index [3]	protein stability index [4]
EDLLQQMLERRYTPYPNLYPDQSP [CLCN6]	3.28 ± 0.24	3.29 ± 0.15	–	–
AALAAMNGRKIMGKEVKVNWATTP [TIA1]	2.25 ± 0.32	2.3 ± 0.28	–	–
YFRHADPTWQNSIRHNLSLNKCFI [FOXJ1]	2.45 ± 0.41	2.23 ± 0.31	–	–
KRPAPRTAPRQEKHERTHEIIPIN [SPRY1]	4.03 ± 0.18	4.2 ± 0.15	–	–
VRDQGPSIPLTPGDTPIRKKEELL [FBF1]	5.26 ± 0.21	5.33 ± 0.12	–	–
SVFKKGRRRVPVRNLGKVVHYAKV [PLEKHN1]	2.36 ± 0.17	2.37 ± 0.84	–	–
HTNCFELSIYVGCDKYPHESQLPE [CPXM2]	2.54 ± 0.34	2.44 ± 0.051	–	–
RVYFLKGGYETFYSEYPECCVDVK [DUSP5]	2.09 ± 0.23	2.46 ± 0.55	–	–
PGQGGPASTPAQTAAGGQGGPGGP [NR2F2]	5.25 ± 0.21	5.33 ± 0.37	–	–
DGYGMTPLLSASVTGHTNIVDFLT [FEM1C]	3.01 ± 0.27	3.1 ± 0.28	–	–
WWTNWVIPAISAVAVALMYRLYMA [CYB5A]	3.22 ± 0.15	3.29 ± 0.36	–	–
AALSATGPRFLAYFGSFATVGLLW [TMEM175]	3.01 ± 0.25	3.18 ± 0.72	–	–
SLKFFLNKPMLADVVFEIQGTTVP [RHOBTB3]	2.68 ± 0.39	2.29 ± 0.37	–	–
HESFFSLFSDPRSTRLTRIHLRED [ZER1]	3.04 ± 0.26	3.14 ± 0.11	–	–
TSAKVNWMPPPSRADSFKVSYQLA [TNXB]	2.5 ± 0.32	2.69 ± 0.26	–	–
KAQAKVGSLDNAHHVPGGGNVKID [MAP2]	4.85 ± 0.12	4.87 ± 0.34	–	–
SSRYDDYSSSRDGYGGSRDSYSSS [RBMX]	4.37 ± 0.25	4.52 ± 0.19	–	–
PGSGSGPGPGSGPGSGPGHGSGSH [SPAG8]	5 ± 0.17	4.93 ± 0.18	–	–
GQTGTRLTPADKAEHMKRQRHPRL [AUP1]	4.32 ± 0.18	4.6 ± 0.075	–	–
SGPARVIAIVSVMVILISIVIFCL [KCNA1]	2.18 ± 0.14	2.22 ± 0.32	–	–
PLLSGVAQEVSPCGPPSLGAVLAL [MFSD9]	2.4 ± 0.35	2.42 ± 0.18	–	–
LAGQFLEELRKFSSLCYKQRIKSQ [MOG]	2.17 ± 0.27	2.14 ± 0.38	–	–
NQEDAIHFHRTLKEACDQHGPDLY [CPOX]	4.33 ± 0.21	4.47 ± 0.15	–	–

Sequence	protein stability index [1]	protein stability index [2]	protein stability index [3]	protein stability index [4]
MDGSGEQPRGGVSSRIEQGEWGGR	4.58 ± 0.43	4.58 ± 0.17	–	–
RVEEQAILDAMAEETRQKQLLADE [TRIM35]	5.57 ± 0.26	5.38 ± 0.15	–	–
WELHSLRHCDDDGRTENGALAPKQ [ZNF24]	4.91 ± 0.16	4.95 ± 0.19	–	–
NDNSPSFATPEREMRISESAASGA [PCDHGC5]	5.21 ± 0.17	5.22 ± 0.089	–	–
REKTNICYLSFPDSNSGCLGDTQF [DENND6A]	2.88 ± 0.063	2.9 ± 0.25	–	–
YKDFLWFFSKRFKSAAMLAVFAVS [SOAT1]	2.25 ± 0.49	2.4 ± 0.53	–	–
RKLRELQLRNCLRILMGELSNHHD [BEX3]	2.38 ± 0.21	2.28 ± 0.19	–	–
ISRALLSDVVPEKERPLVIGHFNT [MFSD9]	3.04 ± 0.45	2.99 ± 0.31	–	–
RISHTLYDLDKIIELNGGQPPLTY [CRY1]	2.38 ± 0.041	2.6 ± 0.27	–	–
LSLYQLSLERGTALFAQVQRGALP [RSAD1]	2.23 ± 0.36	2.32 ± 0.44	–	–
RGGGGGGGGGAPRGRYGPPSRRSE [SRSF1]	5.61 ± 0.1	5.49 ± 0.071	–	–
KERLKPAHIHLQQLTCFSITCSST [KRT34]	2.1 ± 0.34	2.49 ± 0.22	–	–
LELTVRRVQGVLRGRAREREQLQA [HES6]	3.7 ± 0.45	3.64 ± 0.43	–	–
CEMDWSDKMEAYNIDETCGRHHSQ [TEKT4]	4.53 ± 0.15	4.56 ± 0.13	–	–
SPADYLRFQDLVLRMLEYEPAARI [DYRK1B]	2.56 ± 0.35	2.43 ± 0.33	–	–
HQLDFVQVKASSPVPATPILQLEE [TRIM9]	4.54 ± 0.094	4.49 ± 0.33	–	–
AQTLAMMLQEQLDAINEEIRMIQE [PPFIA4]	2.95 ± 0.29	2.7 ± 0.46	–	–
RLDGCIYAIKRSKKPLAGSVDEQN [WEE1]	3.54 ± 0.28	3.73 ± 0.22	–	–
TMARALGRFKLSIPHTHLLATLDP [WDR88]	2.19 ± 0.27	2.21 ± 0.18	–	–
IQLKSVADGQESTPPTPAPTSGIV [WASL]	4.68 ± 0.21	4.84 ± 0.16	–	–
ISLTCVSVAFAVAWFLPMPQKSLF [SLC19A2]	3.15 ± 0.18	3.19 ± 0.17	–	–
SSMFSGSWKESSMNIIELEIPDQN [GMCL1]	3.53 ± 0.29	3.67 ± 0.5	–	–
SQEETSILRCWKCRKCIASSGCFM [RNF180]	2.81 ± 0.4	2.89 ± 0.35	–	–

Sequence	protein stability index [1]	protein stability index [2]	protein stability index [3]	protein stability index [4]
HRHTSHLGHAVLPSNARGPILSRS [SPRY1]	3.69 ± 0.14	3.94 ± 0.13	–	–
PLNRFSSVPLDPMERPMSQADLEL [CBY2]	4.47 ± 0.18	4.53 ± 0.28	–	–
RDPLQTDTLQNDYFAIKQEVVTPD [ETS1]	4.89 ± 0.42	4.9 ± 0.47	–	–
DDAVRVLREIVHKPGPITLTVAKC [DVL3]	2.87 ± 0.16	2.9 ± 0.17	–	–
DFLETPELTSTMLVPASWWILNN [NECAB1]	–	–	2.21 ± 0.35	2.18 ± 0.25
RHEVIMDRHGVYGLQRNLLVENII [TRIM63]	2.42 ± 0.13	2.31 ± 0.22	–	–
KGTILYLQKDEYRPDKALSEGDLK [PSD2]	3.99 ± 0.21	4.04 ± 0.18	–	–
INVWDVLKGSRVSILFGHENRVST [GNB5]	2.31 ± 0.33	2.27 ± 0.34	–	–
DAVPPGMESLISAPLVKTLEKEEE [CDC25B]	5.44 ± 0.21	5.58 ± 0.33	–	–
ESLIVFMEQVHRGIKGLVRDSHGK [CPXM2]	2.26 ± 0.58	2.13 ± 0.76	–	–
GLSGSGVAFVCAFSEALAEGAVKM [PYCR3]	2.58 ± 0.65	2.25 ± 0.34	–	–
IQRPANAIKEMIENCLDAKSTSIQ [MLH1]	4.16 ± 0.16	–	–	–
NALLSKRLLALTSSDLGCQPSRT [TMEM192]	–	–	2.52 ± 0.72	2.61 ± 0.3
RGIDSSSVKLRGSSLFMDTEKSGK [WEE1]	4.91 ± 0.57	4.99 ± 0.25	–	–
RGLRGPNLTSPASITFTTGLEAPR [TNXB]	3.84 ± 0.2	3.92 ± 0.47	–	–
CEGPPRGKGFRDRNVTGTPLTGDK [ADAMTSL2]	5.07 ± 0.36	5.17 ± 0.16	–	–
NQMDKARRHPQGAWKELDRNYLNY [CHGB]	2.77 ± 0.32	2.84 ± 0.19	–	–
ARLFDEPQLASLCLDTIDKSTMDA [BTBD1]	4.35 ± 0.43	4.53 ± 0.17	–	–
YSSSRDGYGGSRDSYSSSRSDLYS [RBMX]	3.51 ± 0.14	3.79 ± 0.21	–	–
VVEEELFHQQGTPRASNRSCAIM [LMNB1]	–	–	2.77 ± 0.3	3.16 ± 0.4
TQYFAELLMTSGVVLCEGVKWLSF [CNOT7]	3.25 ± 0.2	3.56 ± 0.19	–	–
LRFTSGLVVALDVDATLEHVQDPQ [INTS4]	2.09 ± 0.25	2.43 ± 0.22	–	–
VSKVTGWCRDRLLGHREPSAHPVE [TMEM175]	3.21 ± 0.22	3.33 ± 0.099	–	–

Sequence	protein stability index [1]	protein stability index [2]	protein stability index [3]	protein stability index [4]
ASSRSQQSSKRSSRSVEDDKEGHL [CLK3]	5.44 ± 0.079	5.52 ± 0.29	–	–
LGSGPDRELRKPEEPENGEPTAAA [PWWP2B]	5.52 ± 0.18	5.25 ± 0.47	–	–
WAISSWFRRGPAPQDQAGPGGAPR [CLPTM1]	2.75 ± 0.47	3.21 ± 0.48	–	–
DVEDLQRDKARLLREKVEFLRSLR [NFE2L1]	3.33 ± 0.48	3.18 ± 0.34	–	–
QGNGLFYSSGPQSWYPKANNQDFI [ZC2HC1C]	2.6 ± 0.16	2.85 ± 0.051	–	–
LIISCRKLFYFKIWAFLDVSFVER [FBXO39]	3.43 ± 0.47	2.9 ± 0.099	–	–
SSSSILRWLPEKRANPCLSSSNEH [ELOA2]	3.4 ± 0.19	3.54 ± 0.25	–	–
IMNDLSNRVWSISQEPDPVQRLQA [TRIM14]	3.16 ± 0.31	3.16 ± 0.17	–	–
EANADLEVKIRDWHLKQSPASPER [KRT13]	4.79 ± 0.15	4.97 ± 0.27	–	–
IKDLSVVHSDLSSIVILDNSPGAY [CTDNEP1]	2.49 ± 0.23	2.48 ± 0.3	–	–
CQEWYARRHCPLPQATFWGLVTPR [SOAT2]	2.32 ± 0.23	2.25 ± 0.54	–	–
VNLLHIESRKSKRRNSEFEIFVDC [TPH1]	2.26 ± 0.52	2.4 ± 0.35	–	–
SQPIDLSACTVALHIFQLNEDGPS [TRIP13]	2.56 ± 0.2	2.51 ± 0.28	–	–
GNLEVGEPQSEPVRVLDMVAKLES [FBXO34]	5.01 ± 0.34	4.87 ± 0.2	–	–
GSVLRIQPLRTPRDEAIYECVASN [PTPRD]	3.24 ± 0.12	3.17 ± 0.43	–	–
AGGHLAVVELLLAHGADPTHRLKD [ANKRD17]	1.95 ± 0.18	2.11 ± 0.32	–	–
RNQVVSSTNGELNVDDPTGAHSNA [CSNK1G1]	5.25 ± 0.12	5.22 ± 0.18	–	–
KGSPDVSASSDEPYARIQQSRRQC [SMIM2]	4.74 ± 0.18	5.02 ± 0.2	–	–
VASRNLFPKDTLMNLHVYISEHEH [CLPTM1]	2.35 ± 0.34	2.37 ± 0.51	–	–
QILEGELFDFDLEVKPVLEVLVGK [RSPH3]	2.13 ± 0.58	2.37 ± 0.67	–	–
